# Assay results published in patent US10064929B2, “Peptides and combination of peptides for use in immunotherapy against breast cancer and other cancers” (immatics biotechnologies GmbH, priority 2015, dated 2018).
# Square brackets hold non-standard residues; d marks the D form. Ends that are not written are not given here. pT = C[C@@H](OP(=O)(O)O)[C@H](N)C(=O)O
# Test system: CD8+ T cells
# Assay: In vitro T-cell priming with aAPCs loaded with peptide/MHC complexes and anti-CD28 antibody, pMHC multimer readout
# Assay type: cell-based, human
# Settings: HLA class I peptides; CD8+ T cells of healthy HLA-A*02 donors
# Text: In order to obtain information regarding the immunogenicity of the TUMAPs of the present invention, the inventors performed investigations using an in vitro T-cell priming assay based on repeated stimulations of CD8+ T cells with artificial antigen presenting cells (aAPCs) loaded with peptide/MHC complexes and anti-CD28 antibody.
# In order to perform in vitro stimulations by artificial antigen presenting cells loaded with peptide-MHC complex (pMHC) and anti-CD28 antibody, the inventors first isolated CD8+ T cells from fresh HLA-A*02 leukapheresis products via positive selection using CD8 microbeads (Miltenyi Biotec, Bergisch-Gladbach, Germany) of healthy donors obtained from the University clinics Mannheim, Germany, after informed consent.
# PBMCs and isolated CD8+ lymphocytes were incubated in T-cell medium (TCM) until use consisting of RPMI-Glutamax (Invitrogen, Karlsruhe, Germany) supplemented with 10% heat inactivated human AB serum (PAN-Biotech, Aidenbach, Germany), 100 U/ml Penicillin/100 μg/ml Streptomycin (Cambrex, Cologne, Germany), 1 mM sodium pyruvate (CC Pro, Oberdorla, Germany), 20 μg/ml Gentamycin (Cambrex). 2.5 ng/ml IL-7 (PromoCell, Heidelberg, Germany) and 10 U/ml IL-2 (Novartis Pharma, Nürnberg, Germany) were also added to the TCM at this step.
# Generation of pMHC/anti-CD28 coated beads, T-cell stimulations and readout was performed in a highly defined in vitro system using four different pMHC molecules per stimulation condition and 8 different pMHC molecules per readout condition.
# The purified co-stimulatory mouse IgG2a anti human CD28 Ab 9.3 (Jung et al., 1987) was chemically biotinylated using Sulfo-N-hydroxysuccinimidobiotin as recommended by the manufacturer (Perbio, Bonn, Germany). Beads used were 5.6 μm diameter streptavidin coated polystyrene particles (Bangs Laboratories, Illinois, USA).
# 800.000 beads/200 μl were coated in 96-well plates in the presence of 4×12.5 ng different biotin-pMHC, washed and 600 ng biotin anti-CD28 were added subsequently in a volume of 200 μl. Stimulations were initiated in 96-well plates by co-incubating 1×10^6 CD8+ T cells with 2×10^5 washed coated beads in 200 μl TCM supplemented with 5 ng/ml IL-12 (PromoCell) for 3 days at 37° C. Half of the medium was then exchanged by fresh TCM supplemented with 80 U/ml IL-2 and incubating was continued for 4 days at 37° C.
# This stimulation cycle was performed for a total of three times. For the pMHC multimer readout using 8 different pMHC molecules per condition, a two-dimensional combinatorial coding approach was used as previously described (Andersen et al., 2012) with minor modifications encompassing coupling to 5 different fluorochromes. Finally, multimeric analyses were performed by staining the cells with Live/dead near IR dye (Invitrogen, Karlsruhe, Germany), CD8-FITC antibody clone SK1 (BD, Heidelberg, Germany) and fluorescent pMHC multimers. For analysis, a BD LSRII SORP cytometer equipped with appropriate lasers and filters was used. Peptide specific cells were calculated as percentage of total CD8+ cells. Evaluation of multimeric analysis was done using the FlowJo software (Tree Star, Oregon, USA). In vitro priming of specific multimer+ CD8+ lymphocytes was detected by comparing to negative control stimulations.
row,Sequence,"wells (in vitro immunogenicity, positive wells)"
1,ILFPDIIARA (listed as Homo sapiens) [SEQ ID NO: 66],++ (20%-49% = ++)
2,SLYKGLLSV (listed as Homo sapiens) [SEQ ID NO: 51],++ (20%-49% = ++)
3,TLSSIKVEV (listed as Homo sapiens) [SEQ ID NO: 50],+ (<20% = +)

# Same assay, conditions: HLA-A*02 restricted peptides; positive wells among evaluable; healthy donors
row,Sequence,Wells positive [%] (in vitro immunogenicity)
1,ALAGSSPQV (listed as Homo sapiens) [SEQ ID NO: 2],“++” (20%-49% = ++)
2,GLLGFQAEA (listed as Homo sapiens) [SEQ ID NO: 24],“++” (20%-49% = ++)
3,KMPEHISTV (listed as Homo sapiens) [SEQ ID NO: 1],“+” (<20% = +)
4,SLADAVEKV (listed as Homo sapiens) [SEQ ID NO: 23],“+++” (50%-69% = +++)
5,SLLTEPALV (listed as Homo sapiens) [SEQ ID NO: 21],“++” (20%-49% = ++)
6,YIDGLESRV (listed as Homo sapiens) [SEQ ID NO: 22],“+” (<20% = +)

# Biological target: HLA-A*02:01 (Homo sapiens, UniProt P04439, D140Y/D185E/D98H/E176V/E277Q/G131W/G231S/I119V/I121R/I166T/I218V/L300P/L318F/N151K/N90K/P208A/P217A/Q86G/Q94H/R138H/R169H/T345S)
# Assay: MHC binding assay: UV-ligand exchange with β2m ELISA
# Settings: binding to HLA-A*02:01
# Text: Candidate peptides for T cell based therapies according to the present invention were further tested for their MHC binding capacity (affinity). The individual peptide-MHC complexes were produced by UV-ligand exchange, where a UV-sensitive peptide is cleaved upon UV-irradiation, and exchanged with the peptide of interest as analyzed. Only peptide candidates that can effectively bind and stabilize the peptide-receptive MHC molecules prevent dissociation of the MHC complexes. To determine the yield of the exchange reaction, an ELISA was performed based on the detection of the light chain (β2m) of stabilized MHC complexes. The assay was performed as generally described in Rodenko et al. (Rodenko et al., 2006).
# 96 well MAXISorp plates (NUNC) were coated over night with 2 ug/ml streptavidin in PBS at room temperature, washed 4× and blocked for 1 h at 37° C. in 2% BSA containing blocking buffer. Refolded HLA-A*02:01/MLA-001 monomers served as standards, covering the range of 15-500 ng/ml. Peptide-MHC monomers of the UV-exchange reaction were diluted 100-fold in blocking buffer. Samples were incubated for 1 h at 37° C., washed four times, incubated with 2 ug/ml HRP conjugated anti-β2m for 1 h at 37° C., washed again and detected with TMB solution that is stopped with […]. Absorption was measured at 450 nm. Candidate peptides that show a high exchange yield (preferably higher than 50%, most preferred higher than 75%) are generally preferred for a generation and production of antibodies or fragments thereof, and/or T cell receptors or fragments thereof, as they show sufficient avidity to the MHC molecules and prevent dissociation of the MHC complexes.
row,Sequence,"Peptide Exchange (MHC class I binding score, peptide exchange yield)"
1,ALAGSSPQV (listed as Homo sapiens) [SEQ ID NO: 2],“+++” (≥50 = +++)
2,"ALEAUQLYL (ALEA[pT]QLYL; listed as Homo sapiens) [SEQ ID NO: 29, U = phospho-threonine]",“+++” (≥50 = +++)
3,ALEEQLHQV (listed as Homo sapiens) [SEQ ID NO: 19],“++” (≥20% = ++)
4,ALNPVIYTV (listed as Homo sapiens) [SEQ ID NO: 5],“++” (≥20% = ++)
5,ALTALQNYL (listed as Homo sapiens) [SEQ ID NO: 6],“+++” (≥50 = +++)
6,FIIPTVATA (listed as Homo sapiens) [SEQ ID NO: 7],“++++” (≥75% = ++++)
7,FLDEEVKLI (listed as Homo sapiens) [SEQ ID NO: 43],“+++” (≥50 = +++)
8,FLSSEAANV (listed as Homo sapiens) [SEQ ID NO: 30],“++” (≥20% = ++)
9,FLVEHVLTL (listed as Homo sapiens) [SEQ ID NO: 42],“++++” (≥75% = ++++)
10,FMSKLVPAI (listed as Homo sapiens) [SEQ ID NO: 9],“+++” (≥50 = +++)
11,FSFPVSVGV (listed as Homo sapiens) [SEQ ID NO: 20],“+++” (≥50 = +++)
12,GLHSLPPEV (listed as Homo sapiens) [SEQ ID NO: 10],“+++” (≥50 = +++)
13,GLLGFQAEA (listed as Homo sapiens) [SEQ ID NO: 24],“++++” (≥75% = ++++)
14,GLLPTSVSPRV (listed as Homo sapiens) [SEQ ID NO: 11],“++” (≥20% = ++)
15,GLSYIYNTV (listed as Homo sapiens) [SEQ ID NO: 31],“++” (≥20% = ++)
16,GLVATLQSL (listed as Homo sapiens) [SEQ ID NO: 32],“+++” (≥50 = +++)
17,GLVQSLTSI (listed as Homo sapiens) [SEQ ID NO: 8],“++++” (≥75% = ++++)
18,ILFDVVVFL (listed as Homo sapiens) [SEQ ID NO: 25],“++” (≥20% = ++)
19,ILTELPPGV (listed as Homo sapiens) [SEQ ID NO: 33],“++” (≥20% = ++)
20,KAFPFYNTV (listed as Homo sapiens) [SEQ ID NO: 12],“++” (≥20% = ++)

row,Sequence,"Peptide Exchange (MHC class I binding score, peptide exchange yield)"
1,KLLDMELEM (listed as Homo sapiens) [SEQ ID NO: 39],“++++” (≥75% = ++++)
2,KLYEGIPVL (listed as Homo sapiens) [SEQ ID NO: 13],“++” (≥20% = ++)
3,KMPEHISTV (listed as Homo sapiens) [SEQ ID NO: 1],“+++” (≥50 = +++)
4,KQLELELEV (listed as Homo sapiens) [SEQ ID NO: 14],“+++” (≥50 = +++)
5,"LLMUVAGLKL (LLM[pT]VAGLKL; listed as Homo sapiens) [SEQ ID NO: 38, U = phospho-threonine]",“++++” (≥75% = ++++)
6,SLADAVEKV (listed as Homo sapiens) [SEQ ID NO: 23],“+++” (≥50 = +++)
7,SLAEPRVSV (listed as Homo sapiens) [SEQ ID NO: 27],“+++” (≥50 = +++)
8,SLAWDVPAA (listed as Homo sapiens) [SEQ ID NO: 26],“+++” (≥50 = +++)
9,SLFPSLVVV (listed as Homo sapiens) [SEQ ID NO: 15],“+++” (≥50 = +++)
10,SLFSVPFFL (listed as Homo sapiens) [SEQ ID NO: 28],“++++” (≥75% = ++++)
11,SLLSEIQAL (listed as Homo sapiens) [SEQ ID NO: 35],“++++” (≥75% = ++++)
12,SLLTEPALV (listed as Homo sapiens) [SEQ ID NO: 21],“+++” (≥50 = +++)
13,SLNDQGYLL (listed as Homo sapiens) [SEQ ID NO: 41],“+++” (≥50 = +++)
14,SLVEGEAVHLA (listed as Homo sapiens) [SEQ ID NO: 4],“++” (≥20% = ++)
15,SMMGLLTNL (listed as Homo sapiens) [SEQ ID NO: 16],“++++” (≥75% = ++++)
16,TIASSIEKA (listed as Homo sapiens) [SEQ ID NO: 17],“++” (≥20% = ++)
17,TLLGLAVNV (listed as Homo sapiens) [SEQ ID NO: 36],“++++” (≥75% = ++++)
18,YIDGLESRV (listed as Homo sapiens) [SEQ ID NO: 22],“+++” (≥50 = +++)
19,YILLQSPQL (listed as Homo sapiens) [SEQ ID NO: 18],“+++” (≥50 = +++)
